In patent publication US9670249B2, “Amphiphilic peptides and hydrogel matrices thereof for bone repair” (Ben-Gurion University of the Negev Research and Development …, priority 2006, dated 2017):
No end group written: not given here.

Legend:
[1] = Hydrogel formation by dissolving peptides in NaOH solution; type: physicochemical; settings: for pH at which hydrogel is stabilized / formed: 0.023M peptide in NaOH solutions; for Resultant pH / Self supporting gel formation assigned+: 4% weight peptide in 100 μl NaOH solution
Description: In general the matrix can be formed in the following way: dissolving the peptides at high pH above about 8) using either buffer (Tris) or NaOH. With the addition of the peptide the pH of the mixture drops and hydrogel may form. The peptide that is dissolved in alkaline solution can be titrated with HCl to a pH ˜7 to form yield a gel. The same can be done with HA or other mineral particles incorporated in the first step […]. Upon gelation the particles get trapped in the gel.
Four peptides were tested for their tendency to form hydrogels as function of pH and Ca^+2 ion concentrations. The peptides are 13 amino acids long having the sequence P-Y-(Z-Y)n-P, wherein n=5 and Y and Z are alternating hydrophilic (Y) and hydrophobic (Z) amino acids:
The experiment goal was to find appropriate conditions for hydrogel formation at physiological pH values (˜7.2) assuming that the type of amino acids in the dyads will determine the propensity of the system to form hydrogles thus the pH and the Ca^+2 ionic concentration of the system.
In an alkaline solution the acidic amino acid side chains tend to be negatively charged. Under these conditions charge-charge repulsive forces keep the peptides dissolved in solution. Upon lowering the pH the peptides which become uncharged undergo self-assembling through inter-strand hydrogen bonding, to form fibrous structure (FIG. 3) that stabilizes highly hydrated-gel, hydrogel. […] All the peptides lowered the pH of the solution to about 6-8 (Table 1).
In the next set of experiments the hypothesis that the more hydrophobic side chains would stabilize the beta-sheet fibril thus hydrogel formation, at higher pH values, was tested. Table 2 summarizes the effect of the hydrophobic side chain on the pH at which hydrogel is obtained. PLE-13 and PFE-13 were dissolved in different NaOH solutions to the same molar concentration (0.023M). […]

[2] = as above; type: physicochemical; settings: 4% weight peptide in 100 μl NaOH solution, NaOH conc. 0.03

| pH at which hydrogel is stabilized / formed [1] | Substance | Resultant pH ([1]; NaOH conc. 0.03) | Resultant pH ([1]; NaOH conc. 0.05) | Self supporting gel formation assigned+ ([1]; NaOH conc. 0.05) | Self supporting gel formation assigned+ [2] |
| --- | --- | --- | --- | --- | --- |
| > 7 | PEFEFEFEFEFEP [PFE-13, PE(FE)5P] |  |  |  |  |
| ~6.5 | PELELELELELEP [PLE-13, PE(LE)5P] |  |  |  |  |
|  | Pro-Asp-(Phe-Asp)6 (PDFDFDFDFDFDFD) | ~6 | ~7 | +after several hrs. |  |
|  | (Phe-Asp)6 (FDFDFDFDFDFD) | ~6 | ~7 |  |  |
|  | Pro-Asp-Phe-Asp (PDFD; printed: Pro-Asp-Phe-Asp) | ~3 | ~4 | liquid | liquid |
| ~7 | PDFDFDFDFDFDP [PFD-13, PD(FD)5P] |  |  |  |  |
|  | Ac-Pro-Asp-(Phe-Asp)5-Pro-NH2 (Ac-PDFDFDFDFDFDP-NH2) | ~6 | >7.5 | Viscous liquid |  |

| Substance | pH at which hydrogel is stabilized / formed [1] | Resultant pH ([1]; NaOH conc. 0.03) | Resultant pH ([1]; NaOH conc. 0.05) | Self supporting gel formation assigned+ ([1]; NaOH conc. 0.05) | Self supporting gel formation assigned+ [2] |
| --- | --- | --- | --- | --- | --- |
| PDLDLDLDLDLDP [PLD-13, PD(LD)5P] | forms hydrogel at lower pH compared to that of PFD-13 |  |  |  |  |
